Legend:
cyno CD3 = target: T1, cyno CD3 (cyno, UniProt Q95LI5 22-117); experiment: method not stated in the legend (Figure 143)
T1 construct: also called cynomolgus monkey CD3
T1 sequence (looked up): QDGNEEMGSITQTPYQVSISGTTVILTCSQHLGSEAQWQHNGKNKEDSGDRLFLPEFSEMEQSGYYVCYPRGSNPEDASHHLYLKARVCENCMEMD

human CD3 = human CD3 (human, UniProt P07766 23-126); experiment: method not stated in the legend (Figure 142)
Sequence of human CD3 (P07766 23-126): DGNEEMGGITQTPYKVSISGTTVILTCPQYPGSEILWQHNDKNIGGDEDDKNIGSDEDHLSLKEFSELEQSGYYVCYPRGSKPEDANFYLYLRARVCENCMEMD

B1: XENP14045 (anti-CD123 x anti-CD3) bispecific (bispecific antibody)
chain 1: QVQLQQSGAEVKKPGASVKVSCKASGYTFTDYYMKWVKQSHGKSLEWMGDIIPSNGATFYNQKFKGKATLTVDRSTSTAYMELSSLRSEDTAVYYCARSHLLRASWFAYWGQGTLVTVSSASTKGPSVFPLAPSSKSTSGGTAALGCLVKDYFPEPVTVSWNSGALTSGVHTFPAVLQSSGLYSLSSVVTVPSSSLGTQTYICNVNHKPSDTKVDKKVEPKSCDKTHTCPPCPAPPVAGPSVFLFPPKPKDTLMISRTPEVTCVVVDVKHEDPEVKFNWYVDGVEVHNAKTKPREEEYNSTYRVVSVLTVLHQDWLNGKEYKCKVSNKALPAPIEKTISKAKGQPREPQVYTLPPSREEMTKNQVSLTCDVSGFYPSDIAVEWESDGQPENNYKTTPPVLDSDGSFFLYSKLTVDKSRWEQGDVFSCSVMHEALHNHYTQKSLSLSPGK
chain 2: not shown
chain 3: not shown
Kd (cyno CD3): 5.7 nM
Kd (human CD3): 8.1 nM
